For this test, the target named is human CCR3 (human) (UniProt P51677). Description: cell-based or functional assay.
human CCR3 (human), sequence (P51677 whole entry): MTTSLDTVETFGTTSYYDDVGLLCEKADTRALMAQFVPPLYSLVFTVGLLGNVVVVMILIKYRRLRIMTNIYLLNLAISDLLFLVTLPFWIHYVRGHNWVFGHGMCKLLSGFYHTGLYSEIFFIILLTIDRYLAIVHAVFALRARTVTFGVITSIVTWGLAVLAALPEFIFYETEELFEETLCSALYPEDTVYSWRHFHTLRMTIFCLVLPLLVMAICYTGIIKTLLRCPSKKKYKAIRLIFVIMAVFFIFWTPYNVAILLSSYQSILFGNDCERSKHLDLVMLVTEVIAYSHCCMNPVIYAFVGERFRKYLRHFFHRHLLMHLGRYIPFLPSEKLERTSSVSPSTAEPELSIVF

“aminooxypentane (AOP)-RANTES (from UniProt P13501 24-91) (ligand)”: the reduction of 25 nM eotaxin-induced Ca^2+ flux in HOS-CCR3 cells by 100 nM antagonist worked out at 35%.

The values above are taken from patent US20030143192A1.
